Laboratory results as given in article PMC10256812.

Biological target: T1, FLAG-tagged androgen receptor (AR), P10275
T1 chain: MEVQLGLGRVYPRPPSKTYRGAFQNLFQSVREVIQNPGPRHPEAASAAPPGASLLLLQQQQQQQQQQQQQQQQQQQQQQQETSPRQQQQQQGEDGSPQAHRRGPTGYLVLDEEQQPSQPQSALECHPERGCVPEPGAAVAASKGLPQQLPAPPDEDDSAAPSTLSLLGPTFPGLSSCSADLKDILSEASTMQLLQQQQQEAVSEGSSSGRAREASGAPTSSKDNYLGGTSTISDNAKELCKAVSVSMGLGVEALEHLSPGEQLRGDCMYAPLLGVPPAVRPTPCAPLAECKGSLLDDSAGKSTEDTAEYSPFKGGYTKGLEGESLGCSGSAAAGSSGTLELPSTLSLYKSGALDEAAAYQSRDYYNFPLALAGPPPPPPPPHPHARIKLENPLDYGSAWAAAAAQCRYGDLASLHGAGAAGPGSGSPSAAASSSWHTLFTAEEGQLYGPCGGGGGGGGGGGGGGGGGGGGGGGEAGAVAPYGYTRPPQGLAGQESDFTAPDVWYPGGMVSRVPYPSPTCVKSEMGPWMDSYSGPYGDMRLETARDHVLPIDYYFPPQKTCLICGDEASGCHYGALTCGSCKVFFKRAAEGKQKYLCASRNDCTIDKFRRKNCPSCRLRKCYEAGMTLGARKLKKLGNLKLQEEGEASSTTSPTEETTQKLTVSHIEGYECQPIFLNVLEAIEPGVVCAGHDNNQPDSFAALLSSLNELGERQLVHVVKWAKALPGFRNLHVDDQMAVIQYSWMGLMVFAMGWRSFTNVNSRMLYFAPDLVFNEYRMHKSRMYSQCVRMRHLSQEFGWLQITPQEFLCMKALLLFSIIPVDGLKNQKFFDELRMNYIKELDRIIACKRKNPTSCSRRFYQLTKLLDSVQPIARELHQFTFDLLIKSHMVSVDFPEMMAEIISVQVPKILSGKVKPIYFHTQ
Assay: co-immunoprecipitation (Ni-NTA pull-down of His-SREBF1, immunoblot with FLAG antibody), band quantification
Details: chain shown with the change, HEK293T cells

response (+ DHT, parent: 0.9): 3.7 | response (without DHT, parent: 0.1): 0.3
B1: His-tagged SREBF1 (wild type), expressed in HEK293T cells, P36956 Y673A; Y951A (protein)
chain: MDEPPFSEAALEQALGEPCDLDAALLTDIEDMLQLINNQDSDFPGLFDPPYAGSGAGGTDPASPDTSSPGSLSPPPATLSSSLEAFLSGPQAAPSPLSPPQPAPTPLKMYPSMPAFSPGPGIKEESVPLSILQTPTPQPLPGALLPQSFPAPAPPQFSSTPVLGYPSPPGGFSTGSPPGNTQQPLPGLPLASPPGVPPVSLHTQVQSVVPQQLLTVTAAPTAAPVTTTVTSQIQQVPVLLQPHFIKADSLLLTAMKTDGATVKAAGLSPLVSGTTVQTGPLPTLVSGGTILATVPLVVDAEKLPINRLAAGSKAPASAQSRGEKRTAHNAIEKRYRSSINDKIIELKDLVVGTEAKLNKSAVLRKAIDYIRFLQHSNQKLKQENLSLRTAVHKSKSLKDLVSACGSGGNTDVLMEGVKTEVEDTLTPPPSDAGSPFQSSPLSLGSRGSGSGGSGSDSEPDSPVFEDSKAKPEQRPSLHSRGMLDRSRLALCTLVFLCLSCNPLASLLGARGLPSPSDTTSVYHSPGRNVLGTESRDGPGWAQWLLPPVVWLLNGLLVLVSLVLLFVYGEPVTRPHSGPAVYFWRHRKQADLDLARGDFAQAAQQLWLALRALGRPLPTSHLDLACSLLWNLIRHLLQRLWVGRWLAGRAGGLQQDCALRVDASASARDAALVAHKLHQLHTMGKHTGGHLTATNLALSALNLAECAGDAVSVATLAEIYVAAALRVKTSLPRALHFLTRFFLSSARQACLAQSGSVPPAMQWLCHPVGHRFFVDGDWSVLSTPWESLYSLAGNPVDPLAQVTQLFREHLLERALNCVTQPNPSPGSADGDKEFSDALGYLQLLNSCSDAAGAPAYSFSISSSMATTTGVDPVAKWWASLTAVVIHWLRRDEEAAERLCPLVEHLPRVLQESERPLPRAALHSFKAARALLGCAKAESGPASLTICEKASGALQDSLATTPASSSIDKAVQLFLCDLLLVVRTSLWRQQQPPAPAPAAQGTSSRPQASALELRGFQRDLSSLRRLAQSFRPAMRRVFLHEATARLMAGASPTRTHQLLDRSLRRRAGPGGKGGAVAELEPRPTRREHAEALLLASCYLPPGFLSAPGQRVGMLAEAARTLEKLGDRRLLHDCQQMLMRLGGGTTVTSS
